# From the nanobody polyreactivity screen of Harvey et al. (2022)
# Experiment: yeast display, Sf9 membrane polyspecificity reagent, FACS + sequencing; frameworks hold sequencing errors
# Outline: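 Sorting gates, low and high (top ~1%), were placed on anti-HA fluorescence to track expression and on streptavidin fluorescence to track reagent binding. A clone's polyreactivity label is taken from the gate it came out of. The reagent was 10% biotinylated, detergent-solubilized Sf9 membrane, applied for 1 hour at 4 °C to galactose-induced yeast display cells.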
row,Sequence,polyreactivity (PSR sort gate)
1,QVQLVESGGGLVQAGGSLRLSCAASGRISVRIYAMGWYRQAPGKERELVAIISRSGGSTYYADSVKGRFTISRDNAKTTVYLQMNSLKPQDTAVYYCNARWSFSYTVWVASYWCLDDYWGQGTQVTVSS,high polyreactivity
2,QVQLVESGGGLVQAGGSLRLSCAASGRISVVNAMGWYRQAPGQERELVAAIRRASTNYADSVKGRFTISRDNAKKTVYLQMNSLKPEDTAVYYCAARVYGINIFEYWGQATQVTVSS,high polyreactivity
3,QVQLVESGGGLVQAGGSLRLSCAASGRISVYNAMGWYRQAPGKERELVAAISRGSTNYADSVKGRFTISRDNAKNTVYLQMNSLKPEDTAVYYCAARSVSFPWRRYAGYDYWGQGTQVTVSS,high polyreactivity
4,QVQLVESGGGLVQAGGSLRLSCAASGRISYTYSAMGWYRQAPGKERELVAAITRRGGSTSYADSVKGRFTISRDNAKNTVYLQMNSLKPDDTAVYYCAAVGSFHIVDYWGQGTQVTVSS,high polyreactivity
5,QVQLVESGGGLVQAGGSLRLSCAASGRIVADYAMGWYRQAPGKERELVAAIRGSGGDTYYADSVKGRFTISRDNAKNTDYLQMNSLKPEDTAVYYCNAVDTYDLDNDYWGQGTQVTVSS,low polyreactivity
6,QVQLVESGGGLVQAGGSLRLSCAASGRIVANAMGWYRQAPGKESELVAAITATYYADSVKGRFTISRDNAKNTVYLQMNSLKPEDTAVYYFNAYLSPKQPLSPPDPSFEGGYWGQGTQVTVSS,low polyreactivity
7,QVQLVESGGGLVQAGGSLRLSCAASGRIVARYAMGWYRQAPGKERELVAAISPVGSTYYADSVKGRFTISRDNAKNTVYLQMTSLNPEDTGVYYCNAYNTRRSAPYVWRTYDYWGQGTQVTVSS,high polyreactivity
8,QVQLVESGGGLVQAGGSLRLSCAASGRIVGRNAMGWYRQAPGKERELVAAISSGGGRTYYADSVKGRFTISRDNAKNTVYLQMNSLKPEDTAVYYCNAGWRGRFYYWGQGTQVTVSS,high polyreactivity
9,QVQLVESGGGLVQAGGSLRLSCAASGRIVGRYAMGWYRQAPGKERELVAAISWSGGSTYYADSVKGRFTISRDNAKNTVYLQKNSLKPEDTAGYYCAADYDSYFRLYNYWGQGTQVTVSS,high polyreactivity
10,QVQLVESGGGLVQAGGSLRLSCAASGRIVPGNVMGWYRQAPGKERELVAAISSSGGSTYYADSVKGRFTISRDNAKNTVYLQMNSLKPEDTAVYYCNVRSGGKRRYSGRVDYWGQGTQVTVSS,low polyreactivity
11,QVQLVESGGGLVQAGGSLRLSCAASGRIVRNAIGWYRQAPGKERELVAAISRSGGSTYYADSVKGRFTISRDNAKNTVYLQMNSLKPEDTAVYYCDKRSTSQSLQGEYWGQGTQVTVSS,high polyreactivity
12,QVQLVESGGGLVQAGGSLRLSCAASGRIVSVNAMGWYRQAPGKERVLVAAITSGGRTNYADSVKGRFTISRDNAKNTVYLQMNSLNPEDTAVYFCAAPYLKGGEDEYWGQGTQVTVSS,high polyreactivity
13,QVQLVESGGGLVQAGGSLRLSCAASGRIWVYAMGWYRQAPGKERELVATITYNSGRTYYADSVKGRFTISRDNAKNTVYLQMNSLKPEDTAVYYCNADFWYSYRRGYGYWGQGTQVTVSS,high polyreactivity
14,QVQLVESGGGLVQAGGSLRLSCAASGRIYDGYAMGWYRQAPGKERELVATISSGGSTYYADSVKGRFTISRDNAKNNVYLQMNSLKPEDTAVYYCAADSWVQFDYWGQGTQVTVSS,low polyreactivity
15,QVQLVESGGGLVQAGGSLRLSCAASGRIYDVYAMGWYRQAPRKERELVATITGSGGGTYYADSVKGRFTISRDNAKNTVYLQMNSLKPEDTAVYYCAADYYPTYAYYVSNVGYDYWGQGTQVNVSS,low polyreactivity
16,QVQLVESGGGLVQAGGSLRLSCAASGRIYEYMGWYRQAPGKERELVAAISWRGGRTYYADSVKGRFTISRDNAKNTVYLQMNSLKPEDTAVYYCAAKTTYRYGYWGQGTQVTVSS,high polyreactivity

row,Sequence,polyreactivity (PSR sort gate)
1,QVQLVESGGGLVQAGGSLRLSCAASGRIYFYNALGWYRQAPGKERELVATITRSGGRTYYADSVKGRFTISRDNAKNTVYLQMNSLKPEDTAVYYCAAYPTNNLYPNLEYWGQGTQVTVSS,high polyreactivity
2,QVQLVESGGGLVQAGGSLRLSCAASGRIYIIYAMGWYRQAPRKEREMVAAITRSGGRTFYADSVKGRFTISRDNAKNTVYLQMNSLKPEDTAVYYCAAAFGRVTKYGYRNQYGYWGQGTQVTVSS,high polyreactivity
3,QVQLVESGGGLVQAGGSLRLSCAASGRIYLGNVMGWYRQAPGKERELVAAISWSAGSTYYSDSVKGRFTISRDNAKITVYLQMNSLKPEDTAVYYCAAVYLWWSYEFDYWGQGTQVTVSS,low polyreactivity
4,QVQLVESGGGLVQAGGSLRLSCAASGRIYLYAMGWYRQTPGKERELVAAISYSGGSTYYADSVKGRFTISRDYAKNTVYLQMNCLKPEDTAVYYWASEAGSYWGKGTQVTVSS,high polyreactivity
5,QVQLVESGGGLVQAGGSLRLSCAASGRIYSNYAIGWYRQAPGKERELVAAITSGGRTNYADSVKGRFTISRDNAKNTVYLQMNSLKRDDTAVYYCDAETTPYQPDGFDEYYYWGQGTQVTVSS,high polyreactivity
6,QVQLVESGGGLVQAGGSLRLSCAASGRIYTRNTMGWYRQAPGKERELVAAITSRGGSTYYADSVKGRFTISRDNAKNTVYLQMNSLKPEDTAVYYCAADKPRSYYYWGLGTQVTVSS,high polyreactivity
7,QVQLVESGGGLVQAGGSLRLSCAASGRIYVYYVLGWYRQAPGKERELVAAITYSGGSTYYADSVKGRFTISRDNAKNTVYLQMNSLKPEDTAVYYCNKVDAFGIVRLYYWGQGTQVTVSS,low polyreactivity
8,QVQLVESGGGLVQAGGSLRLSCAASGRIYYRYGMGWYRQAPGKERELVAAISRTGGSTYYADSVKGRFTISRDNAKNTVYLQMNSLIPEDTAVYYCNATSNYRYDYWGQGTQVTVSS,low polyreactivity
9,QVQLVESGGGLVQAGGSLRLSCAASGRMFGAYGMGWYRQAPGKERELVAAISNGGRTSYADSVKGRFTISRDNAKNTVYLQMNSLKPEDTAVYYCAAVQLAYTYYWYNDWGQGTQVTVSS,high polyreactivity
10,QVQLVESGGGLVQAGGSLRLSCAASGRNFAWYAMGWYRQAPGKERELVAAISWSSDTTYYADSVKGRFTISRDNAKNTVYLQMNSLKPEDTAVYYCAAVFQGYTRKYYYWGQGTQVTVSS,high polyreactivity
11,QVQLVESGGGLVQAGGSLRLSCAASGRNFDKYTMGWYRQAPGKERELVAAISKSGSGTFYADSVKGRFTISRDNAKNTVYLQMNRLKPEDTAVYYCARVYTVGTGRSWRLDYWGQGTQVTVSS,high polyreactivity
12,QVQLVESGGGLVQAGGSLRLSCAASGRNFGAYTMGWYRQAPGKESELVAAISSSGGRTYYADSVKGRYTISRDNAKNTVYLQMNSLKPEDTAVYYCAASYSGRKDRYPHYDYWGQGTQVTVSS,low polyreactivity
13,QVQLVESGGGLVQAGGSLRLSCAASGRNFGDYAMGWYRQAPGKERELVAAISSSGGRTYYADSVKGRFTISRDNAKNTVYLQMNSLQPEDTAVYYCAAQSKYYQYYSWGQGTQVTVSS,high polyreactivity
14,QVQLVESGGGLVQAGGSLRLSCAASGRNFGLYAMGWYRQAPGTERELVAAISWGGGRTYYADSVKGRFTISRDNAKNTVYLQMNSLKPEDTAVYYCNAVYSPRYYVGGYDYWGQGTQVTVSS,high polyreactivity
15,QVQLVESGGGLVQAGGSLRLSCAASGRNFGRYAMGWYRQAPGKEMELVAAISGSGGTTYYADSVKGRFTISRDNAKNTVYLQMNSLKPEDTAVYYCAARYWVGKVWKYDYWGQGTQVTVSS,high polyreactivity
16,QVQLVESGGGLVQAGGSLRLSCAASGRNFGSYAMGWYRQAPGKERELVAGIRSVGSTNYADSVKGRFTISRDNAKNTVYLQMNSLKPEDTAVYYCAARLWHLSYAGQGGDYWGQGTQVTVSS,low polyreactivity
